Laboratory results from patent publication CN105483091A.

Key:
[1] = biological target: T1, 原核表达的重组人Calcitonin蛋白 (PET28a-Calcitonin, 大肠杆菌BL21表达, Ni-NTA纯化) (human) (UniProt P01258); experiment: direct ELISA, purified antibody diluted 1:200 to 1:12800 on plates coated with purified Calcitonin protein (10 μg/ml), goat anti-mouse IgG-HRP, OD450
T1 sequence (looked up): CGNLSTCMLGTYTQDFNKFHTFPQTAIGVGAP

[2] = biological target: T1, 原核表达的重组人Calcitonin蛋白 (PET28a-Calcitonin, 大肠杆菌BL21表达, Ni-NTA纯化) (human); experiment: ELISA titer, as told in the summary of results

B1: 小鼠抗人Calcitonin单克隆抗体 (杂交瘤细胞株7D5, CGMCC No.6919 产生) (antibody, part only; not given: light chain variable region, V domains shown, part only)
VH: LFCQTAGVHSEVQLQQSGPELVKPGTSVKMSCKASGYTFTSYVIHWVKQKPGQGLEWIGYINPYNVGTKYNEKFRDKATLTSDKSSNTAYMELSSLTSEDFAVYYCVRS
- ELISA滴度 (dilution (1:x)) [1]: > 10000
- ELISA滴度 (dilution (1:x)) [2]: > 100000
